The results in this text go back to patent US20170152290A1.

A value given as a limit tells only on which side of the number the result lay.

The target of experiment [1] is T1, sLRP1-CIV (cluster IV of LRP1 fused to the constant region of a human IgG1) (human). Briefly: SPR (Biacore X), sLRP1-CIV immobilised on CM5 chip, peptide at 20 µM; RU observed at 160 s. A general note: In SPR one partner is held on a chip, and binding of the other changes the refractive index at the surface.
In experiment [2] the target is LRP1 receptor (Low Density Lipoprotein Receptor-Related Protein) on Vero cells. Briefly: cell-based or functional assay.
Experiment [3] deals with T1, sLRP1-CIV (cluster IV of LRP1 fused to …). Briefly: SPR (Biacore X), sLRP1-CIV immobilised on CM5 chip, peptide at 20 µM; RU at 270 s.

In turn, CSNIVIGIGDKALAINWCKKK (modifications not checked) [peptide HDIII3CLK-] showed an RU (at 160 s) in experiment [1] of 276 RU. Moreover, in experiment [2], the Antiviral activity in Vero cells, IC50 (plaque reduction, DENV2) is greater than 100 µM. In the case of FWNWKWEPNKWTWNVEGGKKK (modifications not checked) [beta hairpin peptide PHB6], the Antiviral activity in Vero cells, IC50 (plaque reduction, DENV2) in experiment [2] worked out at 33 µM. Still for that read-out and setting: the value for CIEVNWTEPDKKVNWFICKKK (modifications not checked) [beta hairpin peptide PHB3] was 17 µM.

In the case of CVNWTEPDKKVNWCKKK (modifications not checked) [beta hairpin peptide PHB1], the Antiviral activity in Vero cells, IC50 (plaque reduction, DENV2) in experiment [2] is 75 µM. In experiment [3], this molecule returned an RU (at 270 s) of 117 RU. In experiment [2], CSNIVIGIGDKALKINACKKK (modifications not checked) [peptide HDIII3CLW-] registered an Antiviral activity in Vero cells, IC50 (plaque reduction, DENV2) greater than 100 µM.

CIEVYVTINGKKYNWFICKKK (modifications not checked) [beta hairpin peptide PHB9]: the Antiviral activity in Vero cells, IC50 (plaque reduction, DENV2) in experiment [2] worked out at 7 µM. In experiment [3], this molecule registered an RU (at 270 s) of 1080 RU. Take CIEVYWTRPKWKVNWFICKKK (modifications not checked) [beta hairpin peptide PHB4]: in experiment [2], the Antiviral activity IC50 vs DENV1 (plaque reduction, Vero cells) is 0.002 µM; the Antiviral activity IC50 vs DENV2 (plaque reduction, Vero cells) came out at 0.003 µM; the Antiviral activity IC50 vs DENV3 (plaque reduction, Vero cells) is 0.005 µM; the Antiviral activity IC50 vs DENV4 (plaque reduction, Vero cells) was 0.01 µM. The same molecule had an Antiviral activity in Vero cells, IC50 (plaque reduction, DENV2) in experiment [2] of 0.003 µM. In experiment [3], the RU (at 270 s) was 3600 RU. CVNVTINGKKYNWCKKK (modifications not checked) [beta hairpin peptide PHB7] yielded an Antiviral activity in Vero cells, IC50 (plaque reduction, DENV2) in experiment [2] of 79 µM. In turn, FWNWKWEKNKWTWNVEGGKKK (modifications not checked) [beta hairpin peptide PHB5] showed an Antiviral activity in Vero cells, IC50 (plaque reduction, DENV2) in experiment [2] of 17 µM. In experiment [3], this molecule gave an RU (at 270 s) of 175 RU. Molecule CIEVNVTINGKKYNWFICKKK (modifications not checked) [beta hairpin peptide PHB8] displayed an Antiviral activity in Vero cells, IC50 (plaque reduction, DENV2) in experiment [2] of 15 µM. In experiment [2], CVYWTRPKWKVNWCKKK (modifications not checked) [beta hairpin peptide PHB2] came in with an Antiviral activity in Vero cells, IC50 (plaque reduction, DENV2) of 12 µM. In experiment [3], this molecule returned an RU (at 270 s) of 861 RU. For SSNIVIGIGDKALKINWSKKK (modifications not checked) [peptide HDIII3CLC-], in experiment [2], the Antiviral activity in Vero cells, IC50 (plaque reduction, DENV2) was greater than 100 µM. With CSNIVIGIGDKALKINWCKKK (modifications not checked) [peptide HDIII3CL2], the RU (at 160 s) in experiment [1] worked out at 1010 RU. The molecule further gave an Antiviral activity in Vero cells, IC50 (plaque reduction, DENV2) in experiment [2] of 20 µM.
